Results on 41 sequences are retold here after the nanobody polyreactivity screen of Harvey et al. (2022).

This series can be described thus: yeast display, Sf9 membrane polyspecificity reagent, FACS + sequencing; frameworks hold sequencing errors. The essentials:
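Galactose induction of a Saccharomyces cerevisiae BJ5465 synthetic nanobody display library ran 36–48 hours. The cells were then stained for 1 hour at 4 °C with 10% biotinylated, detergent-solubilized Sf9 membrane reagent, pulled down on streptavidin microbeads and FACS-sorted into low and high (top ~1%) gates on expression and reagent-binding fluorescence. Labels for polyreactivity follow the gate of origin.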
For the sequence “QVQLVESGGGLVQAGGRLRLSCAASGTIFYYNAMGWYRQAPGKERELVAVISQSGTSTYYADSVKGRFTNSRDNAKNTVYLQMNSLKPEDTAVYYCAADSRHGSIMDYWGLGTQVTVSS”, the “polyreactivity (PSR sort gate)” value was “low polyreactivity”. For “QVQLVESGGGLVQAGGRLRLSCAASGTTFWNNAMGWYRQAPGKERELVPGISRSGGSTYYADSVKGRFTISRDNAKNTVYLQMNSLKPEDTAVYYCNKVNYAKRNYWGQGTQVTVSS”, the “polyreactivity (PSR sort gate)” value was “low polyreactivity”. The result for “QVQLVESGGGLVQAGGRLRLSCAAYGSIFDGYAMGWYRQAPGKERELVAAISRGGRTYYADSVKGRFTISRDNAKNTVYLQMNSLKPEDTAVYYCAAVTRLDGNMDYWGQGTQVTVSS” reads “high polyreactivity”. With “QVQLVESGGGLVQAGGRLRLSCADSGRTYRKYAIGWYRQAPGKEMDMVAAISWSGGSTYYANSVKGRFTISRDNAKNTVYLQMNSLKPEDTAVYYCAAVPVHTGSLYWGFTTGYDYWGQGTQVTVSS”, the “polyreactivity (PSR sort gate)” value is recorded as “low polyreactivity”.

As to “QVQLVESGGGLVQAGGRLRLSCADSGSTFVNSVMGWYRPAPGKERELVAGIRFRGGRTYYADSVKGRFTISRDNAKNTVYLQMNSLKPEDTAVYYCAKVQRQSVGFDYWGQGTQVTVSS”, the “polyreactivity (PSR sort gate)” value is listed as “high polyreactivity”. The result for “QVQLVESGGGLVQAGGRLRLSCAGSGRIFISNTMGWYRQGPGKERELVASISLRGGSTYYADSVKGRFTISRDNAKNSVYLQMNSLKPEDTAVYYCAAATLRQYDDEYWGQCTQVTVSS” reads “high polyreactivity”; that for “QVQLVESGGGLVQAGGRLRLSCAPSGNIFRYYVMGWYRPAPGKEREFLAAITSSGGSTYYADSVKGRFTISRDNAKNTVYLKINSLKPEDTEVYYCAKDYWDPGWAEYDYWGQGTQVTVSS”, “low polyreactivity”; that for “QVQLVESGGGLVQAGGRLRLSCAPSGRTFKYYAMGGYREAPGKERELVASISSGGNTNYADSVKGRFTISRDNATNSVYFQMNSLKPEDTAVYYCAASTWQNRRSYYWGQGTQVTVSS”, “high polyreactivity”. The result for “QVQLVESGGGLVQAGGRLRLSCAPSGSTFHSNDMGWYRQAPGKERELVAAITWSGARTYYVDSVKGRFTISRDNAKNTVYLQMNSLKPEDTAVYSCAKKAPSDRNNYWGQGTQVTVSS” reads “high polyreactivity”; that for “QVQLVESGGGLVQAGGRLRLSCPASGSIFGGYAMGWYRQAPGKERELVAGITRSGGSTYYADSVKGRFTISRYNAKNTVYFQMNSLKPEDTAVYYCAVEIQFYRSPRKVRSYDYWGQGTQVTVSS”, “low polyreactivity”; that for “QVQLVESGGGLVQAGGRLRLSCPASGSTFYYYGMGWYRQAHGKERELVAAINCSCGTTYYADSVKGRFTISRDNAKNTVYLQLNSLKPEDTAVYYCAAAFYIYGVEGDYWGQGTQVTVSS”, “low polyreactivity”. As for “QVQLVESGGGLVQAGGRLRLSCSASGRIFATYAMGWYRQAPGKERELVASISRRGGSTYYADSVKGRFTISRDNAKKTVYLQMNSLKPEDTAVYYCAKLFDTERGYNYWGQGTQVTVSS”, the “polyreactivity (PSR sort gate)” value is given as “high polyreactivity”. The result for “QVQLVESGGGLVQAGGRLRLSCSASGSTFGYYAMGWYRQAHGKQRELDASITWTGGSTYYADSVKGRFTISRDNAKYTVYLLMNSLKPEDTAVYYCAAQLEASYWLWTGYGYLGQGTQVTVSS” reads “high polyreactivity”; that for “QVQLVESGGGLVQAGGRLRLSSAASGIIFGNNAMGWYRQAPGKERELVAAIRYSGGRTYYADSVKGRFTISRDIAKNTVYLQMNSLKPEDTAVYYCNALRRGPDGSDYWGQGTQVTVSS”, “high polyreactivity”. The result for “QVQLVESGGGLVQAGGRLRLSSAASGRIFHSYAMGWYRQAPGKDRELVAGITSRGGTYYADSVKGRFTISRDNAKNTVYLQMNSLKPEDTAVYYCNADQALYSSGNKYDYWGQGTQVTVSS” reads “low polyreactivity”; that for “QVQLVESGGGLVQAGGRLRLSSAASGSIFDLYAMGWYRQAPGKERELVASIRYSGGRTYYADSVKGRFTISRDNAKNSVYLQMNSLNPEDTAFYYCNRDGGYTFIMDYWGQGTQVTVSS”, “low polyreactivity”; that for “QVQLVESGGGLVQAGGRLRLSSAASRIIFRDNDMGWYRQAPGKERELVASISDSGGSTYYADSVKGRFTISRDNAKNTVYLQKNSLKSEATAVYYCAAPYLSLYLYDYWGQGTQVTVSS”, “low polyreactivity”. With “QVQLVESGGGLVQAGGRLRLSSADYGITIELYVMGWYRQAPGKERELVAAINRGTSTYYADSVKGRFTISRDNAKNTVYLQMNSLKPEDTAVYYCAAESGVVALYRYDYWGQGTQVTVSS” the entry was “low polyreactivity”. In the case of “QVQLVESGGGLVQAGGRLRLTCAASASIFHYNSMGWYRQATGKQRELVAAITSGGSTYADSVKGRFTISRDNAKNTVYLQMNSLKPEDTAVYYCNADSVGPRGDLGYWGQGTQVTVSS”, the “polyreactivity (PSR sort gate)” value is “low polyreactivity”. With “QVQLVESGGGLVQAGGRLRLTCAASGRIFVIYAMRWYRQAPGKERELVAGITRGDRTYADSVKARFTISRDNAKNTVYLQMNSLKPEDTAVYYCNADTGYRFDYWGQGTQVTVSS” the entry was “high polyreactivity”; with “QVQLVESGGGLVQAGGRLSLSCAASGFIFDYYSMGWYRQAPGKERELVAAISWSGGSTYYADSVKGRFTISRDNAKNTVYLQMNSLKPEDTAVYYCNTYYQGYWGDFDYWGQGTQVTVSS”, “high polyreactivity”. The result for “QVQLVESGGGLVQAGGSFRLSCAASGGTVDTYVMGWYRQAPGKERELVAVITRGASTYYADSVKGRFTISRDNAKNTVYLQMNSLKPEDTAVYYCAAACYSPDYYRFWYSFDYWGQGTQVTVSS” reads “low polyreactivity”.

Take “QVQLVESGGGLVQAGGSFRLSCAASGLISTTYAMGWYRQAPGKERELVAAINVSGGSTYYADSVKGRFTISRDHAKNTVYLQMNSLKPEDTAVYYCAARHDKRRQYYVGQSAFDYWGQGTQVTVSS”: the “polyreactivity (PSR sort gate)” value is recorded as “low polyreactivity”. With “QVQLVESGGGLVQAGGSHRFSCAASGRIFYGHVMGWYRQAPGKERELVADISYDGGSTYYADSVKGRFTISRDNAKKTVYLQMNSLNPEDTAVYYGATRFVYRYTFWYYSTEYNYCGQGTQVTVSS” the entry was “low polyreactivity”; with “QVQLVESGGGLVQAGGSHRISCAASGFIFPYYAMGWYRQAPGKERELVAAITSGGSTNYADSVKGRFTISRDNAKNTVYLQMTSLKPEDTAVYYCDKRLKRWSVYCRYDYWGQGTQVTVSS”, “high polyreactivity”; with “QVQLVESGGGLVQAGGSHRLSCAACGYIFFYNAMGWYRQAPGKERELVASITYRGGSTYYADSVKGRFTISRDNAKNSVYLQMNSLKPEDTAVYYCNVDGGGPLGPQGFPFDYWGQGTQVTVSS”, “low polyreactivity”. The result for “QVQLVESGGGLVQAGGSHRLSCAASGFTFNKYAMGWYRQAPRKERELVAAISSSGGRTSYADSVKGRFTISRDNAKNTVYLQMNSVKPEDTAVYYCNKVSTADMGYWGQGTQVTVSS” reads “high polyreactivity”. For the sequence “QVQLVESGGGLVQAGGSHRLSCAASGFTIVQYAMGWYRQAPGKERELVARISRNGGSTYYADSVKGRFTISRDNAKNTVYLQMNSLKPEDTAVYYCNALRGPVKYYSWGQGTQVTVSS”, the “polyreactivity (PSR sort gate)” value is “low polyreactivity”. The result for “QVQLVESGGGLVQAGGSHRLSCAASGGIAGNTMGWYRQAPGKERELVAAITRSGGRTYYADSVKGRFTISRDNAKNTVYLQMNSLKPEDTAVYYCAVTGLVRRRYGYWGQGTQVTVSS” reads “high polyreactivity”; that for “QVQLVESGGGLVQAGGSHRLSCAASGGTYITNAMGWYRQAPGKERELVAAITSGGRTTYADSVKGRFTISRDNAKNTVYLQMNSLKPEDTAVYYCAADHVYSYTYNFDYWGQGTLVTVSS”, “low polyreactivity”. For the sequence “QVQLVESGGGLVQAGGSHRLSCAASGITFARYAIGWSRQAPGKEREFLAAISWSGGNTYYADSVKGRFTISRDYAKNTVYLQLNSLKTEDTAVYYCAAESKGSWRYYYRFYYWGQGTQVTVSS”, the “polyreactivity (PSR sort gate)” value is given as “high polyreactivity”. With “QVQLVESGGGLVQAGGSHRLSCAASGLIFNYYAMGGYRQAPGKERELVASITGGDSTNYADSVKGRFTISRDNAKNTVYLQMNSLKPEDTAVYYCAAEFYGSSYGYRTYDYYYWGQGTQVTVSS” the entry was “low polyreactivity”; with “QVQLVESGGGLVQAGGSHRLSCAASGLTFVDNAMGWYRQAPGKDRELVAANSYNGGSTYYADSVKGRFTISRDNAKNTVYLQLHRLKPEDTAVYYCAADISVGRYGDMDDWGQGTQVTVSS”, “low polyreactivity”.

On to “QVQLVESGGGLVQAGGSHRLSCAASGRIFFPYDMGWYRQAPGKDRELVAAITNSGGRTYYADSVKGRFTISRDNAKNTVYLQMNSLKPEDSAVYYCAAEYVSAKWEYGYWGQGTQVTVSS”, for which the “polyreactivity (PSR sort gate)” value is “low polyreactivity”. The result for “QVQLVESGGGLVQAGGSHRLSCAASGRIFKIYAMGWYRQAPGKERELVAAISRGGRTYYADSVKGRFTISRDNAMYTFYLLLNSLTPEDTAVYYCNLYAPDTYGINGYWGQGTQVSVSS” reads “high polyreactivity”; that for “QVQLVESGGGLVQAGGSHRLSCAASGRIFRSYAMGWYRQAPGKERELVAAISDRGGSTYYADSVKGRFTISRDNAKKTVYVQMNRLKAEDTAVYSCNAPRGGRNTVYYWGQGTQVTVSS”, “high polyreactivity”. Regarding “QVQLVESGGGLVQAGGSHRLSCAASGRIFTYNAMGWYRQAPGKERELVAVITSGGSTYYADSVKGRFTISRDNAKNTVYLQMNSLKPEDTAVYYCNAVYFRYRYNYWGQGTQVTVSS”, the “polyreactivity (PSR sort gate)” value was “high polyreactivity”. The result for “QVQLVESGGGLVQAGGSHRLSCAASGRIFTYYAMGWYRQAPGKQREFVAAITYRGGRTYYADSVKGRFTISRDNAKNTVYLQLNSLNPEDTAVYYCNVAPYGYWPRYYPWRELDYWGQGTQVTVSS” reads “high polyreactivity”.

Turning to “QVQLVESGGGLVQAGGSHRLSCAASGRILYGYAMGWYRQAPGQERELVASITWSGGSTYADSVKGRFTISRDNAKNTVYLQMKSLKPEDTAVYYCATRRGPKWQWLTYGYWGLGTQVTVSS”, the “polyreactivity (PSR sort gate)” value was “low polyreactivity”. With “QVQLVESGGGLVQAGGSHRLSCAASGRTFGYNAMGWYRQAPGKERELVAAISRSGGRTYYADSVKGRFTISRDNAKNTVYLHMNRLKPEDTAVYYCAAESYHRGYDYWGQGTQVTVSS” the entry was “high polyreactivity”.

Regarding “QVQLVESGGGLVQAGGSHRLSCAASGRTFRPYAMGWYRQAPGKERELVAAITGGTRKYYADSVKGRFTISRDNAKNSVYLQMNSLKPEVTAVYSCAKGDFFSKHDYRGQGTQVTVSS”, the “polyreactivity (PSR sort gate)” value is on record as “low polyreactivity”.
